Assay results reported in the nanobody polyreactivity screen of Harvey et al. (2022).

Assay: yeast display, Sf9 membrane polyspecificity reagent, FACS + sequencing; frameworks hold sequencing errors
In short: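 Polyreactivity labels are assigned by the sorting gate from which each nanobody was recovered. The gates were low and high (top ~1%), set on anti-HA fluorescence for expression and streptavidin fluorescence for reagent binding. Before sorting, galactose-induced (36–48 hours) yeast display cells were stained for 1 hour at 4 °C with 10% biotinylated, detergent-solubilized Sf9 membrane reagent.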

Row | Sequence | polyreactivity (PSR sort gate)
1 | QVQLVESGGGLVQAGGSLRLSCAASGRTFRRYAMGWYRQAPGKERELVAAITRGTRTNYADSVKGRFTISRDNAKNTVYLQMNSLKPEDTAVYYCNARRFLYSGGAYQFYYWGQGTQVTVSS | low polyreactivity
2 | QVQLVESGGGLVQAGGSLRLSCAASGRTFRRYAMGWYRQAPGKERELVAAITSGGSTNYADSVKGRFTISRDNAKNNVYLQMNSLKPEDTAVYYCNARYFRGYDYWGQGTQVTVSS | high polyreactivity
3 | QVQLVESGGGLVQAGGSLRLSCAASGRTFRRYAMGWYRQAPGKERELVAASSRGANTNYADSVKGRFTISRDNAKNTVYLQMNSLKPEDTSVYYGNAYGIDTGDYWGQGTKVTVSS | high polyreactivity
4 | QVQLVESGGGLVQAGGSLRLSCAASGRTFRRYTMGWYRQAPGKERELVATISWSGGTTYADSVKGRFTISRDNAKNTVYLQMNSLKPEDTAVYFCAAVSYVYRYYWGQGTQVTVSS | low polyreactivity
5 | QVQLVESGGGLVQAGGSLRLSCAASGRTFRRYVMGWDRQSPGKERQLVAAIRWTGGSTYYADSVKGRFTISRDNAKNTVYLKMNSLKPEDTEVYYCAAYIRWSGGFDYWGQGTQVTVSS | high polyreactivity
6 | QVQLVESGGGLVQAGGSLRLSCAASGRTFRSNAMGGTTQAPGKERQLVAGITKSGGNTYYADSVKGRFTISRDNAKNTVYLQMTSLKPEDTAVYYCATRYYPLVNYLGYDYWGQGTQVTVSW | low polyreactivity
7 | QVQLVESGGGLVQAGGSLRLSCAASGRTFRSNAMGWNIQAPGKERELVAAITRGRRTYYADSVKGRFTISRDNAKNTVYLQMNSMKPEDTAVYYCAGVGRYACRLDYWGQGTQVTVSS | high polyreactivity
8 | QVQLVESGGGLVQAGGSLRLSCAASGRTFRSNAMGWYRQAPGKERELVAAIRNSDGSTNYADSVKGRFTISRDNAKNNVYLQMNSLKPEDTAVYYCAASSTVGGITRILYYYWGQGTQVTVSS | high polyreactivity
9 | QVQLVESGGGLVQAGGSLRLSCAASGRTFRSNAMGWYRQAPGKERELVATISRRGVSTYYADSVKGRFTISRDNAKNTVYLQMNSLKPEDTAVYYCTLNVGTTSRWSYDYWGQGTQVTVSS | high polyreactivity
10 | QVQLVESGGGLVQAGGSLRLSCAASGRTFRSYAMGWYRQAPGKERELVAAIRGGGGRTHYADSVKGRFTISRDNAKNTVYLQMNSLKPEDTAVYYCAAGRPYLESKLYDYWGQGTHVTVSS | high polyreactivity
11 | QVQLVESGGGLVQAGGSLRLSCAASGRTFRSYAMGWYRQAPGKERELVAAISQRGGSTYYADSVKGRFTISRDNAKNTVYLQMNSLKPEDTAVYYCATPVRSGYDYWGQGTQVTVSS | high polyreactivity
12 | QVQLVESGGGLVQAGGSLRLSCAASGRTFRSYAMGWYRQAPGKERELVAAISSGTSTDYADSVKGRFTISRDNAKNTVYLQMNSLKPEDTAVYYCAYDYWGQGTQVTVSS | low polyreactivity
13 | QVQLVESGGGLVQAGGSLRLSCAASGRTFRSYAMGWYRQAPGKERELVAVISGGGTYYADSVKGRFTISRDNAKNTVYLQMNSLKPEDTAVYYCAAQFHFRPFSWTYDYWGQGTQVTVSS | high polyreactivity
14 | QVQLVESGGGLVQAGGSLRLSCAASGRTFRSYDMGWYRQAPGKERELVAAISEDGGYTYYADSVKGRFTISRDNAKITVYLQMNSLKPEDTAVYYCAKDRPGPLRWWFLYGYWGQGTQGTVSS | low polyreactivity
15 | QVQLVESGGGLVQAGGSLRLSCAASGRTFRSYTMGWYRQAPGKERELVARISSSGGRTYYADSVKGRFTISRDNAKNTVYLQMNSLKPEDTAVYYCAAAIVSYGRNDYWGQGTQVTVSS | high polyreactivity
16 | QVQLVESGGGLVQAGGSLRLSCAASGRTFRTYDMGWYRQEPGKERELVAAITSRAGSTYYADSVKGRFTISRDNAKNTVFLQMNRLKPEDTAVYYCAKQYYYGWYWGEDYWGQGSQVTVSS | low polyreactivity
17 | QVQLVESGGGLVQAGGSLRLSCAASGRTFRVYAMGGYRQAPGTERELVASISRRGAATYYADSVKGRFTISRDNAKNTVYRQMNSLKPEDTAVSDCAADRPYYSVSPNTEFEYWGQGTQVTVSS | high polyreactivity
